Sequences and labels used below:
B1: CPEB3 Ribozyme (parent)
chain: UAACAGGGGGCCACAGCAGAAGCGUUCACGUCGCAGCCCCUGUCAGAUUCUGGUGAAUCUGCGAAUUCUGCUGUAUAUCUC

The variants in the data set derive from B1. The experiment in a line: self-cleavage, relative activity (ratio to wild type); higher = more cleavage; in vitro, sequencing. In a few lines:
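Barcoded CPEB3 ribozyme mutants, produced by rounds of error-prone PCR, self-cleaved while being transcribed with T7 RNA polymerase for 5 hours at 37°C and during a subsequent 15 min DNase I step before EDTA was added. Sequencing of template-switched cDNA on Illumina gave cleaved and total reads, and DNA sequencing assigned barcodes to variants. Each variant's relative activity is its cleaved/total read fraction divided by the unmutated ribozyme's fraction, averaged across three batches. A variant needed a minimum of 5 reads.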
In the case of UAACAGGGGGCCACAGCAGCAGCGUCCACGUCGCAGCCCCUGUCAGAUUCUGGUGAAUCUGCGAAUUCUGCUGUAUAUCUC [A20C U26C], the self-cleavage is 0.34.

As to UAACAGGGGGCCACAGCAGCAGCGUACACGUCGCAGCCCCUGUCAGAUUCUGGUGAAUCUGCGAAUUCUGCUGUAUAUCUC [A20C U26A], the self-cleavage is 0.21.

For the variant UAACAGGGGGCCACAGCAGCAGCGUUCACGUCGUAGCCCCUGUCAGAUUCUGGUGAAUCUGCGAAUUCUGCUGUAUAUCUC [A20C C34U], the self-cleavage is 0.18.

UAACAGGGGGCCACAGCAGCAGCGUUCACGUCGCAGCCCCUGUCAGAUUCUGGCGAAUCUGCGAAUUCUGCUGUAUAUCUC [A20C U54C]: the self-cleavage came to 0.2.

With UAACAGGGGGCCACAGCAGCAGCGUUCACGUCGCAGCCCCUGUCAGAUUCUGGUGAAUCUGCGAAUUCUGCUGUAUAUCUC [A20C], the self-cleavage turned out to be 0.3.

With UAACAGGGGGCCACAGCAGGAGCGUUCACGUCGCAGCCCCUGUCAGAUUCUGGUGAAUCUGCGAAUUCUGCUGUAUAUCUC [A20G], the self-cleavage was 0.89.

For the variant UAACAGGGGGCCACAGCAGCAGCGUUCACGUCGCAGCCCCUGUCAGAUCCUGGUGAAUCUGCGAAUUCUGCUGUAUAUCUC [A20C U49C], the self-cleavage came to 0.17.

Turning to UAACAGGGGGCCACAGCAGCAGCGUUCACGUCGCAGCCCCUGUCAGAUACUGGUGAAUCUGCGAAUUCUGCUGUAUAUCUC [A20C U49A], the self-cleavage was 0.16.

Consider UAACAGGGGGCCACAGCAGCAGCGUUCAUGUCGCAGCCCCUGUCAGAUUCUGGUGAAUCUGCGAAUUCUGCUGUAUAUCUC [A20C C29U], for which the self-cleavage worked out at 0.12.

On to UAACAGGGGGCCACAGCAGCAGCGUUCACGUCGCAGCCCCUGUCAGAUUCUGGUGAAUCUGCGAAUCCUGCUGUAUAUCUC [A20C U67C], for which the self-cleavage came out at 0.33.

Regarding UAACAGGGGGCCACAGCAGCAGCGUUCACGUCGCAGCCCCCGUCAGAUUCUGGUGAAUCUGCGAAUUCUGCUGUAUAUCUC [A20C U41C], the self-cleavage was 0.29.

Consider UAACAGGGGGCCACAGCAGCAGCGUUCACUUCGCAGCCCCUGUCAGAUUCUGGUGAAUCUGCGAAUUCUGCUGUAUAUCUC [A20C G30U], for which the self-cleavage amounted to 0.05.

On to UAACAGGGGGCCACAGCAGCAGCGUUCACGUCGCAGCCCCUGUCAGAUUCUGGUGAACCUGCGAAUUCUGCUGUAUAUCUC [A20C U58C], for which the self-cleavage worked out at 0.43.

Turning to UAACAGGGGGCCACAGCAGGCGCGUUCACGUCGCAGCCCCUGUCAGAUUCUGGUGAAUCUGCGAAUUCUGCUGUAUAUCUC [A20G A21C], the self-cleavage was found to be 0.32.

Consider UAACAGGGGGCCACAGCAGCAGCGUUCACGUCGCAGCCCCUGUCAGAUUCUGGUGAAUCUGCGAAUUCUGCGGUAUAUCUC [A20C U72G], for which the self-cleavage was found to be 0.09.

Turning to UAACAGGGGGCCACAGCAGCAGCGUUCACGUCGCAGCCCCUGUCAGAUUCUGGUGAAUCUGCGAAUUCUGCCGUAUAUCUC [A20C U72C], the self-cleavage was 0.3.

Consider UAACAGGGGGCCACAGCAGCAGCGUUCACGUCGCAGCCCCUGUCAGAUUCUGGUGAAUCUGCGAAUUCUGCAGUAUAUCUC [A20C U72A], for which the self-cleavage amounted to 0.33.

Take UAACAGGGGGCCACAGCAUAAGCGUUCACGUCGCAGCCCCUGUCAGAUUCUGGUGAAUCUGCGAAUUCUGCUGUAUACCUC [G19U U78C]: the self-cleavage turned out to be 0.32.

For the variant UAACAGGGGGCCACAGCAUAAGCGUUCACGUCGCAGCCCCUGUCAGAUUCUGGUGAAUCUGCGAAUUCUGCUGUAUAUCAC [G19U U80A], the self-cleavage was found to be 0.19.

With UAACAGGGGGCCACAGCAUAAGCGUUCACGUCGCAGCCCCUGUCAGAUUCUGGUGAAUCUGCGAAUUCUGCUGUAUAUCCC [G19U U80C], the self-cleavage was 0.26.

Consider UAACAGGGGGCCACAGCAGCAGCGUUCACGUCGCAGCCCCUGUCAGAUUCUGGUGAAUCUGCGAAUUCUGCUGUAUUUCUC [A20C A77U], for which the self-cleavage came to 0.35.

With UAACAGGGGGCCACAGCAGCAGCGUUCACGUCGCAGCCCCUGUCAGAUUCUGGUGAAUCUGCGAAUUCUGCUGUAUGUCUC [A20C A77G], the self-cleavage amounted to 0.11.

On to UAACAGGGGGCCACAGCAGCAGCGUUCACGUCGCAGCCCCUGUUAGAUUCUGGUGAAUCUGCGAAUUCUGCUGUAUAUCUC [A20C C44U], for which the self-cleavage was 0.22.

Take UAACAGGGGGCCACAGCAGCAGCGUUCACGUCGCAGCCCCUGUCAGAUUCUGGUGAAUCUGCGGAUUCUGCUGUAUAUCUC [A20C A64G]: the self-cleavage amounted to 0.07.

For UAACAGGGGGCCACAGCAGCAGCGUUCACGUCGCAGCCCCUGUCAGAUUCUGGUGAAUCUGCGUAUUCUGCUGUAUAUCUC [A20C A64U], the self-cleavage is 0.17.

For UAACAGGGGGCCACAGCAUAAGCGUUCACGUCGCAGCCCCUGUCAGAUUCUGGUGAAUCUGCGAAUUCUGCUGUAAAUCUC [G19U U76A], the self-cleavage worked out at 0.18.

With UAACAGGGGGCCACAGCAGCAGCGUUCACGUCGCAGCCCCUGUCAGAUUCUGGUGAAUCCGCGAAUUCUGCUGUAUAUCUC [A20C U60C], the self-cleavage worked out at 0.17.

As to UAACAGGGGGCCACAGCAGCAGCGUUCACGUCGCAGCCCCUGUCAGAUUCUGGUGAAUCAGCGAAUUCUGCUGUAUAUCUC [A20C U60A], the self-cleavage amounted to 0.43.

UAACAGGGGGCCACAGCAGCAGCGUUCACGUAGCAGCCCCUGUCAGAUUCUGGUGAAUCUGCGAAUUCUGCUGUAUAUCUC [A20C C32A]: the self-cleavage is 0.25.

In the case of UAACAGGGGGCCACAGCAGCAGAGUUCACGUCGCAGCCCCUGUCAGAUUCUGGUGAAUCUGCGAAUUCUGCUGUAUAUCUC [A20C C23A], the self-cleavage came to 0.09.

As for UAACAGGGGGCCACAGCAGCAGCGCUCACGUCGCAGCCCCUGUCAGAUUCUGGUGAAUCUGCGAAUUCUGCUGUAUAUCUC [A20C U25C], the self-cleavage stood at 0.28.

With UAACAGGGGGCCACAGCAGCAGCGAUCACGUCGCAGCCCCUGUCAGAUUCUGGUGAAUCUGCGAAUUCUGCUGUAUAUCUC [A20C U25A], the self-cleavage was found to be 0.31.

Consider UAACAGGGGGCCACAGCAGCAGCGUUCACGUCGCAGCCCCUGUCAGAUUCUGGUGAAUCUGCGAAUUCCGCUGUAUAUCUC [A20C U69C], for which the self-cleavage stood at 0.18.

In the case of UAACAGGGGGCCACAGCAGCAGCGUUCACGUCGCAGCCCCUGUCAGAUUCUGGUGAAUCUGCGAAUUCAGCUGUAUAUCUC [A20C U69A], the self-cleavage is 0.34.

For the origin of these results see the RNAGym collection of RNA variant scans (doi:10.1093/nar/gkz1192).
